These results are taken from patent US20160200782A1 (MOERAE MATRIX, published 2016).

Among the targets are Ab1(T315I)(h) (human, UniProt P00519 27-1130, limits assumed); AMPKa2(h) (human, UniProt P54646 1-552, limits assumed); MARK1(h) (human, UniProt Q9P0L2 1-795, limits assumed); IGF-1R(h) (human, UniProt P08069 959-1367, limits assumed); MAPKAP-K3(h) (human, UniProt Q16644 1-382, limits assumed); MSSK1(h) (human, UniProt Q9UPE1 1-567, limits assumed); MLK1(h) (human, UniProt P80192 132-413, limits assumed); CDK9/cyclin T1(h) (human, UniProt P50750 1-372; O60563 1-726, limits assumed); cKit(D816V)(h) (human, UniProt P10721 544-976, limits assumed); MRCKα(h) (human, UniProt Q5VT25 1-473, limits assumed); GSK3β(h) (human, UniProt P49841 1-420).

Holding throughout (assay): cell-based or functional assay
A further assay deals with T1, PKCε(h) (human, UniProt Q02156 1-737).
T1 sequence (looked up): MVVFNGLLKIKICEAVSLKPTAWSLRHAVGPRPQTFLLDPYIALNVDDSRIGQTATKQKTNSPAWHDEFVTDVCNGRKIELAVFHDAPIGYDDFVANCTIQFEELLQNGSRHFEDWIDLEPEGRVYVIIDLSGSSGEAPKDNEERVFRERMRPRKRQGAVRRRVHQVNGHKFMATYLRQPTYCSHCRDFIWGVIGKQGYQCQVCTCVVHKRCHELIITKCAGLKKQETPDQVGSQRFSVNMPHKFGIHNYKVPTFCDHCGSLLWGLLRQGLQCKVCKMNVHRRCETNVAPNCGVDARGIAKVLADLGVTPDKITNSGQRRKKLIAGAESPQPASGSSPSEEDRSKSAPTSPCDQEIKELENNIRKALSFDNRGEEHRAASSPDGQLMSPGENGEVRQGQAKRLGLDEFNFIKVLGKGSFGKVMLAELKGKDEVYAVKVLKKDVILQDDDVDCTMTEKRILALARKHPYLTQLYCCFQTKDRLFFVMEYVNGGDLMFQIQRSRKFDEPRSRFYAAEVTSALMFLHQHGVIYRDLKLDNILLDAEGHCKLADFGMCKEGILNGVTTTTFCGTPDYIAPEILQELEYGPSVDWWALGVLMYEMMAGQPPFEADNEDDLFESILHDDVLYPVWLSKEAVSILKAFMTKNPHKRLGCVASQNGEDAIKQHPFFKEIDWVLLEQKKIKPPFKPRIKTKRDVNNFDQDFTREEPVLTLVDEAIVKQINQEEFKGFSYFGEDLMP

For another assay, the target named is T2, PKCζ(h) (human, UniProt Q05513 1-592).
T2 sequence (looked up): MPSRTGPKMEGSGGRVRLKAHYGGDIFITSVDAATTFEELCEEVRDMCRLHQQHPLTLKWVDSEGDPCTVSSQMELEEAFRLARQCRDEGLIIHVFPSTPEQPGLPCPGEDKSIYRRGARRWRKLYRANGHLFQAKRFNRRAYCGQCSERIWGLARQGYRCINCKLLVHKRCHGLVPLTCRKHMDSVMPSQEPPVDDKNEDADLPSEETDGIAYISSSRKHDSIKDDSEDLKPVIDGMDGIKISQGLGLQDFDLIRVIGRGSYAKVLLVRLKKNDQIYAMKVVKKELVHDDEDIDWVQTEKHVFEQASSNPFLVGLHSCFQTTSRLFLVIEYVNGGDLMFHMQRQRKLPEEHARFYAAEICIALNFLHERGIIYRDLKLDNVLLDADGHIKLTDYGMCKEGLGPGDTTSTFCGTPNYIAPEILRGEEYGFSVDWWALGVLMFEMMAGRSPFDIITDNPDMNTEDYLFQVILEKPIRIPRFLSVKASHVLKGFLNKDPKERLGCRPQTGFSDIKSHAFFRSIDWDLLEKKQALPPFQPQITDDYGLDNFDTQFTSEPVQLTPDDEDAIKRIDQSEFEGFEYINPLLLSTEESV

The next assay addresses T3, SAPK4(h) (human, UniProt O15264 1-365).
T3 sequence (looked up): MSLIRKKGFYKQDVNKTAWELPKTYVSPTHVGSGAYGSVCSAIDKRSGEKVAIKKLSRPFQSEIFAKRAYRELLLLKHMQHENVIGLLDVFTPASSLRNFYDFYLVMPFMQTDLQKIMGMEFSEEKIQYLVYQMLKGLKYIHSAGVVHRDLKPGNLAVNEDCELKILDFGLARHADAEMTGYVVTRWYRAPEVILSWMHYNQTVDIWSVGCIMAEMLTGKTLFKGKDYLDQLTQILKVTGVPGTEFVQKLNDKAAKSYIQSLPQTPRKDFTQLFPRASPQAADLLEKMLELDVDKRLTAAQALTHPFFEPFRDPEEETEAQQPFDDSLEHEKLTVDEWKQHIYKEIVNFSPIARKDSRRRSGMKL

In a further assay the target is T4, EphA8(h) (human, UniProt P29322 564-1005, limits assumed).
T4 sequence (looked up): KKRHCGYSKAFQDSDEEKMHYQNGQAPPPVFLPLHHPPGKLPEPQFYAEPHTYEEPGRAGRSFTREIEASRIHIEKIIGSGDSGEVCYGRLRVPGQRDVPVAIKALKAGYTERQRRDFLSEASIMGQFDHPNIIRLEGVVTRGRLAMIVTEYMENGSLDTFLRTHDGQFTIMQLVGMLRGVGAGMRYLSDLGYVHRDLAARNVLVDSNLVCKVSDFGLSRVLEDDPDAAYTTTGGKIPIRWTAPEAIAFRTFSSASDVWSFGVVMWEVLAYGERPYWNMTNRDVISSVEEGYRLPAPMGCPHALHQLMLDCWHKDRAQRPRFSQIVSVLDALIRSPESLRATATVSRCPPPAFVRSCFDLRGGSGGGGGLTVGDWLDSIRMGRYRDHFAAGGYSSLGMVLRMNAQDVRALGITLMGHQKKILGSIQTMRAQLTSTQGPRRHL

Sequence of MRCKα(h) (Q5VT25 1-473 limits assumed): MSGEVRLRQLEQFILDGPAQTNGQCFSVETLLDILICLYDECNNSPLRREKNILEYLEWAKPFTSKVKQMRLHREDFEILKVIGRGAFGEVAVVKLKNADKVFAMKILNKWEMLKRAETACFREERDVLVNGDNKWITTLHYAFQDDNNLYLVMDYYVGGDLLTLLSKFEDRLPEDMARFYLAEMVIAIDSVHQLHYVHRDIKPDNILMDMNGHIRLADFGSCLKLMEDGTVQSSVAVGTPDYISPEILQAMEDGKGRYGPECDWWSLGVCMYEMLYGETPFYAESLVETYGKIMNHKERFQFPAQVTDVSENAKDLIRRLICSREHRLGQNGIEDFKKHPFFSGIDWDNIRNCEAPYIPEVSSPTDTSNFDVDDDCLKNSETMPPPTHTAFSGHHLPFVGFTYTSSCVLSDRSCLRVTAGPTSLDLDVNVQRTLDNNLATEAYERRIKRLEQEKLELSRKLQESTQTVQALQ
Sequence of GSK3β(h) (P49841 whole entry): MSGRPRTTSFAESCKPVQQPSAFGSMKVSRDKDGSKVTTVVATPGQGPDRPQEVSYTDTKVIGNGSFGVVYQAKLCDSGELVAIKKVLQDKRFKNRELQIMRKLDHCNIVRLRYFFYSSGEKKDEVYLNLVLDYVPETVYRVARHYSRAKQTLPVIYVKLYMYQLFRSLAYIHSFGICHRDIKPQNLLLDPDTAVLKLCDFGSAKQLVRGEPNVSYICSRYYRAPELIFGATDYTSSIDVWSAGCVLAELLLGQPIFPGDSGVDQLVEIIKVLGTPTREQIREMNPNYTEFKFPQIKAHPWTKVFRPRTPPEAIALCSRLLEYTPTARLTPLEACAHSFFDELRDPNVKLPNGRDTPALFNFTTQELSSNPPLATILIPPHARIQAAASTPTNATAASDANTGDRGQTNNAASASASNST
Sequence of MAPKAP-K3(h) (Q16644 whole entry): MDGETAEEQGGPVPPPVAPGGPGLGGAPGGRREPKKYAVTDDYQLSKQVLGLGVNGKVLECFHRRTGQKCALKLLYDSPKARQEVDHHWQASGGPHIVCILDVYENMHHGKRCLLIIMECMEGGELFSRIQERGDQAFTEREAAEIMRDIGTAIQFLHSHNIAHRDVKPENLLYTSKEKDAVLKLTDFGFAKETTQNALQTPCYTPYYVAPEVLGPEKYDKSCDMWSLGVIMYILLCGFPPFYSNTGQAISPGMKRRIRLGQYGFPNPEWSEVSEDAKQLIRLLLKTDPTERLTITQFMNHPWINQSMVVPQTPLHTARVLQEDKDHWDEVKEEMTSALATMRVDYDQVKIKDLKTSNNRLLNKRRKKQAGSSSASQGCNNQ
Sequence of CDK9/cyclin T1(h) (P50750 whole entry, chain 1 of 2): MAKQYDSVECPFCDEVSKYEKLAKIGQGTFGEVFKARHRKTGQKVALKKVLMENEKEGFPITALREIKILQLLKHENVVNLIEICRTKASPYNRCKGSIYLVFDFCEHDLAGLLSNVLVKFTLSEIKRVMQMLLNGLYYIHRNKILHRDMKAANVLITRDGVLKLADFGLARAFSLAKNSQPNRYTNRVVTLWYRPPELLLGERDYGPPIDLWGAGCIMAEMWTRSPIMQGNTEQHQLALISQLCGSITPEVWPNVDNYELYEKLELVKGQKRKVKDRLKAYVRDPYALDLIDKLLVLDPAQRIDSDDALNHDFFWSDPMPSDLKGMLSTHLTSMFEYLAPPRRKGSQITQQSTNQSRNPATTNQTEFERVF
Sequence of CDK9/cyclin T1(h) (O60563 whole entry, chain 2 of 2): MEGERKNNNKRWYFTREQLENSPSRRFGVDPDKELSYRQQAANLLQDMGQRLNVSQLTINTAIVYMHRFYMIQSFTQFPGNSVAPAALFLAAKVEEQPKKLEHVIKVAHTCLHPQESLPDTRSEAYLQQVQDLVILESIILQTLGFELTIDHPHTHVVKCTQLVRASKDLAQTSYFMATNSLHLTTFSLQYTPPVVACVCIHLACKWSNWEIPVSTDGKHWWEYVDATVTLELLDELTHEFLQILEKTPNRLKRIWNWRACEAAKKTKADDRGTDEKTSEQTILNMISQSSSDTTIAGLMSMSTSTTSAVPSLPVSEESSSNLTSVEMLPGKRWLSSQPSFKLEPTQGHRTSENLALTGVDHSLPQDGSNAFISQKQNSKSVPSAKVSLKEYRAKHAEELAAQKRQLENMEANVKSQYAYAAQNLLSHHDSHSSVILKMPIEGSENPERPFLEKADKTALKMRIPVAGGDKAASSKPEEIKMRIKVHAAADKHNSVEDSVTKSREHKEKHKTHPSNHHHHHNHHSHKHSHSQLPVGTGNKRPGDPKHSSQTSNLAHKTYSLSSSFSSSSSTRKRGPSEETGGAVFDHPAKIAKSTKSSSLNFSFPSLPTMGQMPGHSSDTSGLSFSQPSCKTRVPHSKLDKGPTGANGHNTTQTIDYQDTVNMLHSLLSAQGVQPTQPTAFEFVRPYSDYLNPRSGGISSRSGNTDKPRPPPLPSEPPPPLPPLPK
Sequence of MSSK1(h) (Q9UPE1 whole entry): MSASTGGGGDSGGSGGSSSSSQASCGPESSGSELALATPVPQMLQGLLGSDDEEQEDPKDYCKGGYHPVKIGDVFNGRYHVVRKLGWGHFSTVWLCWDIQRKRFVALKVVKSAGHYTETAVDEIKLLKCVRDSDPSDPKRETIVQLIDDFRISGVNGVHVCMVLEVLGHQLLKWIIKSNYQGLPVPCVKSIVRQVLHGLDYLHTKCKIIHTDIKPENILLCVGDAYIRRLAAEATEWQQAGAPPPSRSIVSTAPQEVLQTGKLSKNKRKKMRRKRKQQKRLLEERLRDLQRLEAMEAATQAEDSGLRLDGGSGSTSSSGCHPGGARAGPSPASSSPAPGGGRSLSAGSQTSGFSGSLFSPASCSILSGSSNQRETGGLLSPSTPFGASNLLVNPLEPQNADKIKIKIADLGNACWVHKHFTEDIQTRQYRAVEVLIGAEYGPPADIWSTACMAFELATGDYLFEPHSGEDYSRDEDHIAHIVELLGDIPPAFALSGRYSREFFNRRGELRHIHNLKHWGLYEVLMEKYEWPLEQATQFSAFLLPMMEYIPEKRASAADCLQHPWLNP
Sequence of MARK1(h) (Q9P0L2 whole entry): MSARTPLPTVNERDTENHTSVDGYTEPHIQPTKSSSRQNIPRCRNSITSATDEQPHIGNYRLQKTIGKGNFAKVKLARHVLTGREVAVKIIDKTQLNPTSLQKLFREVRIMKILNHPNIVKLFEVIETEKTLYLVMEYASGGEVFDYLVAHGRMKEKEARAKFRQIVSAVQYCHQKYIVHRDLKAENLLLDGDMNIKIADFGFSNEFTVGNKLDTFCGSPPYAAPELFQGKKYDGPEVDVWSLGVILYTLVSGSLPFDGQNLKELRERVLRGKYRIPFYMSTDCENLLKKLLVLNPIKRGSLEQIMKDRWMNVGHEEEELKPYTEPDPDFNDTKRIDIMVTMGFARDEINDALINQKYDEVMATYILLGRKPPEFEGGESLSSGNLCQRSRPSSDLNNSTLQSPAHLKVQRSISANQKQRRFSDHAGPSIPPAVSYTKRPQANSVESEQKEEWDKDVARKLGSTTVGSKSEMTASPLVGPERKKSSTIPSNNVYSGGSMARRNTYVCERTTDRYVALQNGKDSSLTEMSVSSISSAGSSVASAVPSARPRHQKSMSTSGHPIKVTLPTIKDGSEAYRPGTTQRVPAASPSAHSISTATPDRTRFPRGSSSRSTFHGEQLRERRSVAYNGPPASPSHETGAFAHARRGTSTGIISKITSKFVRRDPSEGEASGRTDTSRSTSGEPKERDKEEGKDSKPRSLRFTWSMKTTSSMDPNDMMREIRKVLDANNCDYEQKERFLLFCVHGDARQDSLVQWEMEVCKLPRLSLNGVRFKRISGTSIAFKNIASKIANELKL
Sequence of Ab1(T315I)(h) (P00519 27-1130 T315I limits assumed): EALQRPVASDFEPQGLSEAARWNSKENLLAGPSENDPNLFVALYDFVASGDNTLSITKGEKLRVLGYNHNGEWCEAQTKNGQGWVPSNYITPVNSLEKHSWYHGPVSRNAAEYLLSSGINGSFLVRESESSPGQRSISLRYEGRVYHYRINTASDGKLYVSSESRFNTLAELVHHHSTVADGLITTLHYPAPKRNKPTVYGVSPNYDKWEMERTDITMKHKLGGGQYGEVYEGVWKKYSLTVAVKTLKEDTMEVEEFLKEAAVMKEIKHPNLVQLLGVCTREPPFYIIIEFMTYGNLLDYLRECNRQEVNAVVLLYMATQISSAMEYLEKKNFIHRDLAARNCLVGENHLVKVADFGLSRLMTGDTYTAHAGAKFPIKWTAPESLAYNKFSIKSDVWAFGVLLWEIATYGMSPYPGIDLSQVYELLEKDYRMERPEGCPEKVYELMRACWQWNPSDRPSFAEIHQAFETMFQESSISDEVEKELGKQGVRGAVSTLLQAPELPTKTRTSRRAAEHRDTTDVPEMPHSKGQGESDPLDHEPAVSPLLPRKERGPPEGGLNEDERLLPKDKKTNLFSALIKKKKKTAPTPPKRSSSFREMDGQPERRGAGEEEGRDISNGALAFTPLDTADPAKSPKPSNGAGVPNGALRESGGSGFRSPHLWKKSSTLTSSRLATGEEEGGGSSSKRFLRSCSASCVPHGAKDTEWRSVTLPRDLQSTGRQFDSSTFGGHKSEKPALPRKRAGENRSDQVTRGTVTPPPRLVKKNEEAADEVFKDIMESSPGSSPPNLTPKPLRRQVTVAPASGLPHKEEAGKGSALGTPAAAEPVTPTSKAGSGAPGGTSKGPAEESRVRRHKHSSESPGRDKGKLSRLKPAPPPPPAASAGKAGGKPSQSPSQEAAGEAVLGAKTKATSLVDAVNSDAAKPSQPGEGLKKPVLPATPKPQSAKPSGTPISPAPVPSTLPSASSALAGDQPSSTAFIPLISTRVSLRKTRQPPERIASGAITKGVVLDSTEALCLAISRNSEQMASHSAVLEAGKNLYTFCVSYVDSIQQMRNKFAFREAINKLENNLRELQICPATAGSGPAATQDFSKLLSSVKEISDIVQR

FAKLAARLYRKALARQLGVAA [MMI-0300]: the “% activity” value with Ab1(T315I)(h) worked out at 97%; with AMPKa2(h), 54%; in the assay with MARK1(h) it was 132%; with PKCε(h) it was 79%; with IGF-1R(h), 119%; with PKCζ(h) it was 81%. The “% activity” value with MAPKAP-K3(h) was 3%; with MSSK1(h) it was 77%; with MLK1(h), 40%; with CDK9/cyclin T1(h), 91%; with cKit(D816V)(h) it was 60%; with MRCKα(h), 104%. For the same molecule, the “% activity” value came to 205% with GSK3β(h), 96% with SAPK4(h) and 93% with EphA8(h).

KAFAKLAARLYRKALARQLGVAA [MMI-0400]: the “% activity” value was found to be 105% with Ab1(T315I)(h); 58% with AMPKa2(h); 120% with MARK1(h); 59% in the assay with PKCε(h); 90% with IGF-1R(h); 75% in the assay with PKCζ(h). The “% activity” value with MAPKAP-K3(h) worked out at 7%; in the assay with MSSK1(h) it was 75%; with MLK1(h), 33%; with CDK9/cyclin T1(h) it was 235%; with cKit(D816V)(h) it was 35%; in the assay with MRCKα(h) it was 97%. The entries for the “% activity” value with GSK3β(h), in the assay with SAPK4(h) and with EphA8(h) were 202%, 91% and 146%, respectively.
